Results reported in patent US8097443B2, “Nucleotidyltransferases with enhanced nucleotide triphosphate flexibility” (priority 2007, dated 2012).

Columns and labels:
Assay in all cases: purified protein, by the assay type
Conditions in all cases: other: Wild-type RmlA, 10 mM glucose-1-phosphate, 0.05-25 μM enzyme, [NTP] + 5 mM MgCl2, 100 mM Tris-HCl pH 8.0, 37° C.
[1] = tested on: Nc1ccn([C@@H]2O[C@H](COP(=O)(O)OP(=O)(O)OP(=O)(O)O)[C@@H](O)[C@H]2O)c(=O)n1
Protocol: (§1) In a typical reaction, sugar-1-phosphate (10 mM final) and enzyme (0.01-50 μM) were mixed with NTP (0.01-40 mM) in the presence of MgCl2 ([NTP]+5 mM) and 10 U/mL inorganic pyrophosphatase (Sigma, St. Louis, Mo., USA) in 100 mM Tris HCl, pH 8.0 (20 μL final volume). Typical reactions were analyzed after 10 min at 37° C. and reaction times were extended for some slow reacting sugar/NTP combinations. Reactions were stopped by the addition of 80 μL prewarmed HPLC buffer and heat inactivation (95° C., 5 min). The amount of enzyme used and the incubation time was adjusted so that the reactions never proceeded to more than 10% turnover for kinetics, or 30% for activity assays.
(§2) Kinetic Measurements—Pseudo first order kinetics were obtained by fixing glucose-1-phosphate at a saturating concentration of 10 mM (Barton et al. (2001) Nat Struct Biol 8, 545-551), and titrating NTPs. At least eight different concentrations in the range of ¼×KM to 4×KM (0.09-20 mM for dTTP, 0.2-40 mM for others) were assayed in triplicate. Reaction rates were confirmed to be linear over twice the incubation time. Activities were corrected for time and enzyme concentrations, and the kinetic curves were fit to the Michaelis-Menton equation using SigmaPlot with the Enzyme Kinetics module (SPSS, Chicago, Ill., USA).

[2] = tested on: Nc1ccn([C@H]2C[C@H](O)[C@@H](COP(=O)(O)OP(=O)(O)OP(=O)(O)O)O2)c(=O)n1
Protocol: as §1, §2

[3] = tested on: O=c1ccn([C@@H]2O[C@H](COP(=O)(O)OP(=O)(O)OP(=O)(O)O)[C@@H](O)[C@H]2O)c(=O)[nH]1
Protocol: as §1, §2

[4] = tested on: Nc1nc2c(ncn2[C@@H]2O[C@H](COP(=O)(O)OP(=O)(O)OP(=O)(O)O)[C@@H](O)[C@H]2O)c(=O)[nH]1
Protocol: as §1, §2

[5] = tested on: Nc1nc2c(ncn2[C@H]2C[C@H](O)[C@@H](COP(=O)(O)OP(=O)(O)OP(=O)(O)O)O2)c(=O)[nH]1
Protocol: as §1, §2

[6] = tested on: Nc1ncnc2c1ncn2[C@H]1C[C@H](O)[C@@H](COP(=O)(O)OP(=O)(O)OP(=O)(O)O)O1
Protocol: as §1, §2

Work on “wt RmlA (glucose-1-phosphate thymidylyltransferase) (Salmonella enterica subsp. enterica serovar Typhimurium str. LT2)” yielded a Km [1] of 13.7 ± 1.1 mM, a kcat [1] of 0.0983 ± 0.0033 s⁻¹ and a Km [2] of 10.5 ± 1.1 mM. The kcat [2] was 1.22 ± 0.05 s⁻¹, the Km [3] was 4.6 ± 0.7 mM and the kcat [3] was 41 ± 2.17 s⁻¹. It also gave a Km [4] of 8.5 ± 0.6 mM, a kcat [4] of 0.14 ± 0.0033 s⁻¹ and a Km [5] of 3.7 ± 0.5 mM. The kcat [5] was 2.12 ± 0.083 s⁻¹, the Km [6] was 7.8 ± 0.9 mM and the kcat [6] was 1.88 ± 0.083 s⁻¹.
